# Test: soluble on expression in E. coli; label from the status in PepcDB or PDB records
row,Sequence,soluble on expression in E. coli
1,MNKKLMTLAVFLFSSAASAASTDATVNLVNANGTGQKIGNITITETEYGLLFTPHLSSLPAGIHGFHIHENGSCDAGMKDGKPVAALAAGGHLDPQHTNKHLGPYNPEGHLGDLPALYVNQAGNADYPVLAPRLKSISQVKGHAIMIHTGGDNHEDHPNPLGGGGARIACGVIK,not soluble
2,MNKKYPKINYIGNKEKIASWICDQLPSDVDTVADVFSGGCSFAYEAKKRGYRVITNDILAINYQIALALIENNHETLNDDDVAMIFSGSPHAGFMSQRYSEKFYFHDECQQLDLYRKNIGKLNNQYKRALAFTLMRRAMIRKMPYSRFTIPWEKVKQLRDEEYSYAKYGRRRAYHNESFQSHFLQNLDDYNQAVFNNGWRHHAFNQDIFDLLPNIQADAVYLDPPYTGTMNNYFGFYGLLDSYITSSIPKPFANHFMDKKQAVELFKRVINHLKPFKYWLLSYNNASYPNRDELEEMLGKNGRNVQILETPHVYKVTGKEKKQSHKEILFLVENT,not soluble
3,MNKRYNTLNDYYRRIFGEKTFKVPIDAGFDCPNRDGTVAHGGCTFCTVSGSGDAIVAPEAPIRDQFYKEVDFMHRKWPDVKKYLVYFQNFTNTHDKVEVIRERYEQAINEPGVIGINIGTRPDCLPDVTILYLAELSQRLHVTLELGLQTTYEKTSKLINRAHSYQLYVETVKRVRDLAPKVEIVSHLINGLPGESHEMMLENVRRCVTDNDIDGIKLHLLHLMTNTRMQRDYHEGRLHLLSMEEYVNIICDQLEIIPKNIVIHRLTGDAPRDMLIGPMWSLNKWEVLNSIDREMERRNAYQGCKLEVNI,not soluble
4,MNKTILALDTATEACSVALLHNGNITTLDELSPRNHTQRILPMVDELLSQANISIKQVDVLAFGRGPGSFTGVRVGVSVAQGLALGANLPVVAISNLLAMAQAAYQQLRANNVIALIDARMNEVYFAQYQRIGEHWHTIVEEQVCSPETAIAQMKINDNSVVVGTGWAAYPQFYVAKLPLSVSDISLPSAKDMLELALKAVENGELQTALDIEPIYLRNEVTWQKLPHKRLEHHHHHH,soluble
5,MNKVSVVLPTYNCGTYVGVAVESVLQQTYSNYELIIVNDGSTDETDQALAPYLCNNGHIRYIKQGNKGHAGARNTGIRAATGDVIAFIDSDDKWLPEKLGEQVQAMEEDPEVGLVHCNVYGFGENQEVQVRGPLLTQEQLQGYSGYIFDNLYFRKIIITTTTVMIRKSCIDDVGMFDENMTRYGSEDRELFLRILWKYKARYVNKPLAMYRNRSDSEGQNYERMIKGQEYVYEKITSLYGLPQSSKRAVMSKMYQEWAREFYAKGRFADGLTNQVKAIRANPIDMNAYFALKRYARFLFSRATLEHHHHHH,not soluble
6,MNLCRECYGIIGEGVVAEKCEACCNAFDRVEEFAEEIVKKMSEYEFETFNVGSRVWGSLKALQEYLSLKGIEYEIKQRFNTKLARAIEEKTGSKRTLNPDITVLFDLETFTFELQIRPVFIYGRYLKRVRNISQTRWLCGYCNGEGCEVCNFTGKKYVSSVEELIAMPAVRLFKARDAKLHGAGREDVDARMLGTGRPFVLEVIEPRKRFVDLKELEEAINSQKWVAVRDLEYTDAEKVREVKTERHRKTYRAKVVFEEKVERERLIEALESLKGEIRQRTPMRVSHRRADRVRVRRLYDARLIHHTGRVAVVEFEAEAGLYIKELVSGDNGRTRPSLAEKVGVNARVDRLDVIAVSLEHHHHHH,soluble
7,MNLHVKTLSLMTWRSRFLEESFWSLEETAALAKQLPLKSPSENIFLHIVDLSDPKQIWKFVENFKQEHKLHVLINNAGCMVNKRELTEDGLEKNFAANTLGVYILTTGLIPVLEKEHDPRVITVSSGGMLVQKLNTNDLQSERTPFDGTMVYAQNKRQQVVLTERWAQGHPAIHFSSMHPGWADTPDRNEQELRKVVGEAQTASPLPRFLEIMMHEGKCQPQGHSSNDLEACWSSGGGEQNSLPDWPHQLHDLRQLTWALCSSFLLYKQGN,not soluble
8,MNLNFSLLDEPIPLRGGTILVLEDVCVFSKIVQYCYQYEEDSELKFFDHKMKTIKESEIMLVTDILGFDVNSSTILKLIHADLESQFNEKPEVKSMIDKLVATITELIVFECLENELDLEYDEITILELIKSLGVKVETQSDTIFEKCLEILQIFKYLTKKKLLIFVNSGAFLTKDEVASLQEYISLTNLTVLFLEPRELYDFPQYILDEDYFLITKNMV,not soluble
9,MNLPPDALHENVYAFALARDQVESYCNQCLTSMAELKKCSACRRLAYCSQECQRADWKLHKVECKAIKTHNEVANDSIRLVMRIAGKLSRNEDGEIEAYYIPGVARNFQNLEHHPSSYDADEESFVKEYFQFAIAPHPDRDLIKLIFQKVSINSFVVGNSTGNPIGVGLCIKLSAANHSCKPLTRVCYRNRTAMLVPVSSELPSTLEGACHSYIDELMPRDMRRDTLKKKYKFLCQCDGCLDEDRNARMEAWTCGICVKGWMRNKENGQCELCGWTMSKDHFELCRTAEEAGIAARSRLANDAIPLETKRNLCEKLLDLFQDTLHDHNVHRIPVLRCLYICSLAAQNITAAAKTGGTLLSIMLVYQNTTDPAILFQKYQLAQLFCAAGAKTQATKLLQEIEEPLEKIYTPDSMICRNVYCMILKARNLS,not soluble
10,MNLQIKHAIFVLGIFLQVQGIKDTSIKIFSSEIKNIDKTPRIETIESTSTVHKVSTMKRIFDLPKLRTKRSALFPAANICPQESLRQILASLQEYYRLRVCQEVVWEAYRIFLDRIPDTEEYQDWVSLCQKETFCLFDIGKNFSNSQEHLDLLQQRIKQRSFPGRKDETASMETLEAPTEAPVVPTDVSRMSLGPFPLPSDDTDLKEILSVTLKDIQKPTTESKTEPIHVSEFSSEEKVEFSISLPNHRFKAELTNSGSPYYQELVGQSQLQLQKIFKKLPGFGEIRVLGFRPKKEEDGSSSTEIQLMAIFKRDHAEAKSPDSHLLSLDSNKIESERIHHGVIEDKQPETYLTATDLKKLIIQLLDGDLSLVEGKIPFGDEVTGTLFRPVTEPDLPKPLADVTEDATLSPELPFVEPRLEAVDREGSELPGMSSKDSSWSPPVSASISRSENLPSFTPSIFSLDAQSPPPLMTTGPTALIPKPTLPTIDYSTIRQLPLESSHWPASSSDRELITSSHDTIRDLDGMDVSDTPALSEISELSGYDSASGQFLEMTTPIPTVRFITTSSETIATKGQELVVFFSLRVANMPFSYDLFNKSSLEYQALEQRFTDLLVPYLRSNLTGFKQLEILSFRNGSVIVNSKVRFAKAVPYNLTQAVRGVLEDLRSTAAQGLNLEIESYSLDIEPADQADPCKLLDCGKFAQCVKNEWTEEAECRCRQGHESHGTLDYQTLNLCPPGKTCVAGREQATPCRPPDHSTNQAQEPGVKKLRQQNKVVKKRNSKLSAIGFEEFEDQDWEGN,soluble
11,MNLYRLLKQREADQKPLRVALIGAGKFGSMFLSQVQRTPGMRLVAVADLAPDRARAALTRVGWPAAALNADTIHHAVKTGKVYFSDDVRSVSVDPEVEIVIDATGQAAAGIEHVLTCCEYGKHII,not soluble
12,MNMLEKIQSQLEHLSKSERKVAEVILASPDNAIHSSIAALALEANVSEPTVNRFCRSMDTRGFPDFKLHLAQSLANGTPYVNRNVNEDDSVESYTGKIFESAMATLDHVRHSLDKSAINRAVDLLTQAKKIAFFGLGSSAAVAHDAMNKFFRFNVPVVYSDDIVLQRMSCMNCSDGDVVVLISHTGRTKNLVELAQLARENDAMVIALTSAGTPLAREATLAITLDVPEDTDIYMPMVSRLAQLTVIDVLATGFTLRRGAKFRDNLKRVKEALKESRFDKQLLNLSDDR,soluble
13,MNNEAVFSARLSSTQHVGLCRLCNSPLVHTFVDLGMSPPCESFVAADAANDVEPFYPLHAFVCDECFLVQLQEYVAPENIFTEYAYFSSFSDSWVAHAKRYCDMVIERFALGQSSFVVELASNDGYLLQHFLTSNIPMLGIEPAVNVAKVAIGKGIPTLTEFFNEALATDMAARGQKADLIIGNNVLAQVPDINDFVAGMKTLLKPEGVITLEFPHIEKLIAENQFDTIYHEHFSYFSLLTIEKMARRHGLKVFDVEEIPTHGGSLRVFFSHEDIRFPREARVDSLLARELNAGLDKIETYTAFAEAVRQTKRNLLSFLIRLKEMRKSICAYGAPGKGNTLLNYCGIGTDFIDFAVDRNPYKHGRLTPGMHIPIRPVSEIPHMKPDYVLILPWNLKNEIVAQMKDIRNWGGKFIVPIPDISIIDPKELVQ,not soluble
14,MNNETSGKETASAPLCSPKLPVEKVQRIAKNDPEYMDTSDDAFVATAFATEFFVQVLTHESLHRQQQQQQQQVPPLPDELTLSYDDISAAIVHSSDGHLQFLNDVIPTTKNLRLLVEENRVRYTTSVMPPNEVYSAYVVNDTAPKPNIVEIDLDNDEDDDEDVTDQE,not soluble
15,MNNFLKHNDWARDPAFNHFWRHYDFSNQWIKQHTDASRQVQMQMVQRDNLSTEQCFSDSEEPEVIERLSRCEIYSEIENEESDIEEMSEEMKAFFAKTQEHRQKFSIRGRIEQSTDHRNASAEFIAKREKAKKDYGESATKILAMESTLAMKFESEYSQNPQLWPNIPFRF,not soluble
16,MNNILSEEVLNVTDFTTSRQLTLWKREDLQSPQLDDVAEEVPVALVYNGISHVVMMASPKDLTHFAMGFSLSEGIIDSPREIYGMDVVPSCNGLEVQIDLSSRRFMGLKARRRALAGRTGCGVCGVEQLNDIGKPVQPLPFSQTFNLGNLDRALKHLNDFQPTGKLTGCTHAAAWVMPSGELAGGHEDVGRHVALDKLLGRRATEGEEWRQGAALVSSRASYEMVQKSAMCGVEILFAVSAATTLAVEVAERCNLTLVGFCKPGRATIYTHPQRLIADLEHHHHHH,not soluble
17,MNNLKLDIVEQDDKAIVRVQGDIDAYNSSELKEQLRNFISTTSKKKIVLDLSSVSYMDSAGLGTLVVILKDAKINGKEFILSSLKESISRILKLTHLDKIFKITDTVEEA,soluble
18,MNNLMPAELAPQINAHFNGKFEVELKYRLADREAFWARLSAKSPEVMLEDNLEHDCYFDSPSASLAAQHKSLCIREMQPSGIRLWIVKGPEKDRCEAVNITDANKAKSMLRTLGYQCVLEIKKRRSVYFLGQFHLTLDRLEGLGDFAELAIMTDDEAMLPVYEAQLVALAAELGLNESQREFLSYRQLQQALQQLEHHHHHH,not soluble
19,MNNNDIIRRLRYTFDFNDDKMIQLFALADQQVTRAEISNWMKKDDDPDFKELYDKELAVFLNGFIIDKRGKKDGQTPVAEKSLNNNIIFRKLKIALNLQDDDILDILELADMRFGKHELSALFRNPDQSQFRPCKDQVLRNFIHGLQLKYRKE,not soluble
20,MNNPKPCEWKSNELSRGYIADYKAFNFVDGEGVRCSLYVSGCPFHCEGCYNKAAQSFKYGKPYTKELEDDILKDIGHESVQGLTLLGGEPFLNTATCLSVVKRIRATYGKTKDIWSWTGYTWDEMMQETTDKLELLSLIDVLVDGRFEQKLFDPNLAFRGSSNQRIIDVQKSLAADEVVLYELLEHHHHHH,soluble
21,MNNRIIYVVSDSVGETAELVVKAALSQFNGSADDTHVRRIPYVEDIGTINEVISLAKADGGIICFTLVVPEIREYLIAEAEKANVLYYDIIGPLIDKMETAYGLTAKYEPGRVRQLDEDYFKKVEAIEFAVKYDDGRDPRGILKADIVLIGVSRTSKTPLSQYLAHKRLKVANVPIVPEVDPPEELFNVDPKKCIGLKISPDKLNHIRKERLKSLGLNDKAIYANINRIKEELEYFEKIVDRIGCQVVDVSNKAVEETANIIHHLKTKNIAAALEHHHHHH,not soluble
